The text below walks through data of the DeepSol protein solubility set.

This series in a line: soluble on expression in E. coli; label from the status in PepcDB or PDB records.
Take “MGSDKIHHHHHHMEQRKRRLPPLKSLLFLESVVRNQSVTAAADELSITHSAVSKQLSQLEVWIGQPLFLEKRKGMIPTAEIGRVAAVLGNAFDEIQDALDELHPKRAAKPPVLRVIAPATLAMRWLIPKLGEFHTSAGETDVMVRPTHTPDNWLEMEFDIAIRRGGLIPPQFLPQSLFAETLSLVATARVAESYRMGQGDQLSQIGLIDVSTRHGELMNWLKLAGLPVAMARQATKLPHFYIALDAMFAGRGALVVPTYLIEDQLSRGELVELFPQSRIQGPSYQVFVNPASGAGNLAKGFVDWIKRAIPSVAQYAETR”: the “soluble on expression in E. coli” value is “not soluble”.

For the sequence “MQTLKSDIRNRILSAAKEQFMQRGYLKTSMREIADAVDVGVGNLYNYFENKDELFCVILRPVSDALERMLQEHHGAKGADIMLICSEEYLKSAVDEYISLINKHGELMKILLFHSQGSSLETFREDYTNRSTEIVKTWFAEMKEKHPEINVVVSDFMIHLQAVWMFTLFEEMLKHAIDSKEMEYIVHEYILFEIQGWRALLRV”, the “soluble on expression in E. coli” value is on record as “not soluble”.

As for “MSLRQPNPSQKKAPTGQVRIISGLWRGRKLPVHDAEGLRPTTDRVKETLFNWLAQEVPNARCLDLFAGSGGLGFECASRQANQVTMLELNPLAFQQLKTNVQSLKAENIELIHTDALAFLRQSGKPYDVVFIDPPFRQGLLQETTQLLEQNGWLAPQAMIYIECEKELPLTELPPHWHLHREKSAGQVCYREGHHHHHH”, the “soluble on expression in E. coli” value was “not soluble”.

As for “THRAFNPKTLYIDASTSALKYSQGSTVYFRLPLDDIVRVQIQKESFSSQSLMIYTVNDSYQVPNSDNFDSLQLKYLMKKLEKRLDDQRR”, the “soluble on expression in E. coli” value is on record as “not soluble”.

With “NGFDREMRTRILGMVPQATVESYQPIDDWRALAEKVKAHEHVTAVAPFTQMQGMLSANGAVQTVMVDAVDPLEEAKVSIIPDFFKQGSLAELKAGGFGIVIGQLAAQKLGVGIGDKVTLILPEVAVTPAGVFPRMKRFTVVGTFRVGAGELDGGLSLIHLEDAARLQRWKTNQVQGLRLKLDDLFQAPRVAWEIARTLTDNDFYARDWTRSHGNLYQAIRMEKT”, the “soluble on expression in E. coli” value is given as “not soluble”.

In the case of “MKKLNFSELNWINTPENFSITENELVIHTSPDTDFWRGTYYGLEYNNAPGIVMRSEERFWTLKSKVAFESNMFFDQCGMLIYIDDNNWMKSGIEYQSNGYQQLFSVVTNNGFSDWAMTNLDRVTQTMYYRLSRRGNDFLLEHSADGKIFNMMRMFHMFQAYTTVQFGFFASSPGDSSFAAHFSEIEWTECLWDAHTSSRFLEHHHHHH”, the “soluble on expression in E. coli” value is given as “not soluble”.

For the sequence “YDNLAHNLAVERGLTAGVLGSQGKTEIVQKLTQQRKKVDDAVNSLVQLNTPLISSSDSYDLLQDVQVQLNRLNQVRQGVDRLSPQIAPFGYYSNLNQLIIDNIDILIAQTQSRELGTLGDALISVIVMKERAGQARGALNGVFAKGSATSVLFSNIEGYIQSGDYASRKAQIAFPEQYRQSLQSHQSNPAWKKVEQVQQSFLNQSANLDNIQGPQATEWFPMATERIGLMNQLRNQMVDQMLSAA”, the “soluble on expression in E. coli” value was “not soluble”.

Consider “GSGGIEGRHMVELLKLVRSSGCAAKVGPGDLQEILKGFNIYTDESTLVSIGDDAGVYEHNGIIWVYTVDIITPVVNDPYLWGAISTANALSDVYAMGGIPVNALAISCFNNCELDIEIFREVIRGALDKLREAKTVLLGGHTIDDKEPKFGLSVAGICPEGKYITQSGAQVGQLLILTKPIGTGILIKGLKEGILKEEDINEAIENMLALNDKARNLMLSLDATACTDVTGFGLLGHAWNICKNSNIGARIFFEKVPYYQLSENLVKKKIYPKGAIENLNFVKNYLKSNLDNWKLILLSDPVTSGGLLFTINKEKLEKIDETAKELEVNYWIIGETIAENVLEVL”, for which the “soluble on expression in E. coli” value is given as “soluble”.

As to “MAHHHHHHMVGLVKPLFPNTLLTEAQDERRLLTLVLDLDETLVSNRDSRQSAAVLRPYCLHVLNALRHMKELEIVLWTASTKETALPVVDQLHKTGIIFDDIIFRNSIWFTQPIHTKDLRLLGRDMNRVLIVDNSVGCCKLHPRNALLVEDFHGVKRREDAALVNVYYVVDALLRMMRERTMPVSEGLGCLMAEGQLCHPVSYDLPAFFKCIPLTEVPELKRPPVGRFARANTAPPNTSIMQHWVY”, the “soluble on expression in E. coli” value was “soluble”.

With “MKVGSQVIINTSHMKGMKGAEATVTGAYDTTAYVVSYTPTNGGQRVDHHKWVIQEEIKLEHHHHHH”, the “soluble on expression in E. coli” value is “not soluble”.

As to “MNNRIIYVVSDSVGETAELVVKAALSQFNGSADDTHVRRIPYVEDIGTINEVISLAKADGGIICFTLVVPEIREYLIAEAEKANVLYYDIIGPLIDKMETAYGLTAKYEPGRVRQLDEDYFKKVEAIEFAVKYDDGRDPRGILKADIVLIGVSRTSKTPLSQYLAHKRLKVANVPIVPEVDPPEELFNVDPKKCIGLKISPDKLNHIRKERLKSLGLNDKAIYANINRIKEELEYFEKIVDRIGCQVVDVSNKAVEETANIIHHLKTKNIAAALEHHHHHH”, the “soluble on expression in E. coli” value was “not soluble”.

Regarding “MSVFHDEVEIEDFEFDEEKDVYHYPCPCGDRFEIPREMLEMGEDVAQCPSCSLLIRVIYDPEDFVKLETISTSKPIAEPV”, the “soluble on expression in E. coli” value is listed as “not soluble”.

Turning to “LSSVSSIPDYAEQLRTADLRVTRPRVAVLEAVNAHPHADTETIFGAVRFALPDVSRQAVYDVLHALTAAGLVRKIQPSGSVARYESRVGDNHHHIVCRSCGVIADVDCAVGEAPCLTASDHNGFLLDEAEVIYWGLCPDCSISDTSRSHP”, the “soluble on expression in E. coli” value is recorded as “soluble”.

As for “MSLIKVIDAHVHYHIYARKIPEHCKEFLENVEGTRMTLKNDNVEIEKILLVPSHPCHSEDCYDGFYIDYEERKRNPDLYMQWGEVNPLKCDVKRELERQYSLGIIGIKLHPVHHTFKPNAYREEEGGLKQLLYIYEFAEDHGLPILIHTGTSIGVGSRNKYADPIYADDIAKDFPKLRIILAHAGRPLWYNTAFHMARFTQNIFLEISSIPPKNILKVLPRIHEISDKVIYGSDFPAFKGQDLAEYAYQVYNVLKNEKIMRDNAKRILKISEGHHHHHH”, the “soluble on expression in E. coli” value is “not soluble”.

Take “MGSSHHHHHHGGTGENLYFQGGSGRDREVVECLLGMEQWLRELNRPLASAGVGGSVDVGASSSLLSGFPPCMEGDALRSAYRSALSELRLLVLGVLNTMPWWRVVETVAGNPPAAQTGGARTASAGGGDNSSSEAGAARVAARHAGGWDRSAAALHVITRWHARLQIAFERVCLVLIDQSQQTVRGVLEVLLKPCQLRPPVRDGARRSIPSDSFIRVLNAVATKYSPVYVVELLEGCIADFMPRRRWAERRHHVACTAVLLYLALEGHTPAYHPQLGNSYSLQRAVRLLTSLRSRRADGRCALSGSPWLLPHATGSYSLTLP”: the “soluble on expression in E. coli” value is “not soluble”.

Regarding “MGSDKIHHHHHHMNQHTLLPKKTERLQYFGSVSPIKGEKPVEKEKMKDLQNIRKDYFFDIQHVGVANVSHPVTITSAMMPAEQTTAANFTMTCNLPRNQKGINMSRLTELLQVYHQNGWILSFSSLQQFTKELAENMDTSSATVEVRFPWFFERKSPKLEKAGLMHADIFMSVTYRKDQPFKQRAGISAKVTTLCPCSKEISEYSAHNQRGTVKHLGRIFTRAASLPSDVKADLPHAAESNASARLHPVLKRPDEKAVTETAYENPRFVEDLARLIAADLFELEWVSAFEIECRNEESIHLHRCLCEVCFSKEVDKI”, the “soluble on expression in E. coli” value is on record as “not soluble”.

For the sequence “MGSDKIHHHHHHESGDIITSDQMDEVDPVAGLNGMYAYLYKFDTMGYGDEAQHYDYGYHHILLCSDLWGQDMIQYSSKYGWYYTDYQFNQNSRAYQYISTFYFWNYLYKLIKSANDVLKTTTDDSKKEDRGQALGMRAFAYLTLVQMYQHTYAGHENAPAVPIVLETTEPDVLSNNPRASVKEVYDLIEKDLVQAHSDLSSYQRLNSTYIDQTVISGLLARMYLLKEDWTNAAKYAKEARASYGAPADKAELIDEGYIDMNKHHTWMFTSHITTDAEIVQTGIVNFISHISSTAYGYVTAGGMFKNISSELYSKIADNDIRKGWFADKDFTYEGGPMGSVALPKYANLKYMWYDLEGNNCNDLCYMRAEEMWLIEAEALAMGGNIAGGKSLLEEFVKTRQPDYVCDATDAKGIQDACWLQRRIEFWGEGIAWFDLKRLKKPIIRKYEGTNHNLDAQYDFPAEDDIFRILIPRKEIQDNNGIGEEDNNPMPNI”, the “soluble on expression in E. coli” value is on record as “not soluble”.

Take “MGSDKIHHHHHHMARYYMPAEGDSYLKKVWTWATTGKRFRPSFPRTIEFQTLSTCNAKCIFCPHKHSPKDIPHGRMDDALFRKIVDECARHFVGRVSPYLTNEPLMDKRMPEMLRYIHDKMPFFTKSKINTNAALLTEETGEALIRAGLTHLWISVNGYSPETYRTSMDLDLDRTLTNIDTFLATKRRLGAKNPKVIVTTVETNIVKPELDYARKYWKERDIVFKVHAMDNRAGADSLTFKASKPKLKRNCDLFLKQAYIVENGDMIICCHDWKQTVKVGNVAETSIKEVWNSRYFTDLIRDYVRGDYSRLGICAKCSS”: the “soluble on expression in E. coli” value is “not soluble”.

Take “MRVLVLCTHNSARSQMAEAWLKHFARELGVDLEVHSAGTEKAFVKEEAKRVMAEVGLDLSGHFSKTLLEVPDPWDFGLVLTVCDQAKEACPAYPARTERRHVSFPDPTGKPLEEWRKVRDALGRMARFLVEALKEGRLPSDEELRQAARL”: the “soluble on expression in E. coli” value is reported as “soluble”.

For “SDENNGLLLLELNPPNPWDLQPRSPEELAFGEVQITYLTHACMDLKLGDKRMVFDPWLIGPAFARGWWLLHEPPSDWLERLCQADLIYISHLHSDHLSYPTLKKLAGRRPDIPIYVGNTERPVFWNLNQSGVQLTNINVVPFGIWQQVDKNLRFMILMDGVHPEMDTCIIVEYKGHKILNIVDCTRPNGGRLPMKVALMMSDFAGGASGFPMTFSGGKFTEEWKAQFIKTERKKLLNYKARLVKNLQPRIYCPFAGYFVESHPSDKYIKETNTKNDPNELNNLIKKNSDVITWTPRPGATLDLGRMLKDRTDSKGIIEPPEGTKIYKDSWDFEPYLEILNAALGDEIFLHSSWIKEYFTWAGFKDYNLVVRMIETDEDFNPFPGGYDYLVDFLDLSFPKERPQREHPYEEIHSRVDVIRHVVKNGLLWDELYIGFQTRLQRDPDIYHHLFWNHFQIKLPLTPPNWKSFLMCCEQNGPVILQECKTT”, the “soluble on expression in E. coli” value was “soluble”.

On to “MGSRCVAAANCPFGKLPGQSCVRKSDPSLAFNIPSNQDNCPMGQVCITAGESQVGHCCPVICPLNTTTDTRYSCDPDAAPALKCPSDSHYCYFLSGNFNKIQNFICNANSDGSFSQAACCRRPCNAMAPNALYVDYHCMPRGQLNSACTSNAQCGGGEGMECMKGQCQCQQNFHPAVDVLTNPLKNPSQSCSRDCESENLSKDTSCMKAVPLNSLCFIQKQCPQNSGCYRGRCMCRCGFAAKNGKCVEIPAPPTTTSAPAPAIIPGVPINPGNDLFKLFGQFLGAGNGGGGLNFG”, for which the “soluble on expression in E. coli” value is recorded as “not soluble”.

Regarding “SLQPYEKYLKLNSQKLRADQTDTERKLWQRINRDQLLGFRFNRQKPLLSYIVDFYCAKTKLIIELDGSQHYKPDYQEKDALRDAELNSLGFTVMRFSNDEVMREIEAVVEQIYLFLENVRTD”, the “soluble on expression in E. coli” value is given as “not soluble”.

“MSLKREEICRLLADKVNKLKNKENSLSELLPDVRLLYGETPFARTPVMYEPGIIILFSGHKIGYINERVFRYDANEYLLLTVPLPFECETYATSEVPLAGLRLNVDILQLQELLMDEGHHHHHH”: the “soluble on expression in E. coli” value is given as “not soluble”.

In the case of MREKWRKKRMRRLKRKRRAAKK, the “soluble on expression in E. coli” value is on record as “not soluble”.
